Drawing on publication PMC10480042 (ACS applied materials & interfaces, 2023), this text covers Kd for one molecule.

In the assay the target is Aβ42. Briefly: SPR. (In SPR one partner is held on a chip, and binding of the other changes the refractive index at the surface.)

As usually defined, the Kd is the concentration at which binding is half-saturated. High values mean a looser complex, low ones a tighter complex. HGVVFLHVTYV [Spike1058 (1058HGVVFLHVTYV1068), fragment of the SARS-CoV-2 spike protein] returned a dissociation constant (Kd) of 82.6 nM.
